The supplement of paper PMC5998384

Columns and labels:
HeLa Kyoto [1] = experiment: melting temperature (median over replicates), in situ; higher = more thermally stable
HeLa Kyoto [2] = experiment: solubility in G1/S (NP-40 vs SDS abundance) (log2 ratio); higher = more soluble; conditions: cell cycle stage: G1/S
HeLa Kyoto [3] = experiment: solubility change mitosis vs G1/S (difference of NP-40 vs SDS log2 ratios) (log2 ratio difference); higher = more soluble in mitosis
HeLa Kyoto [4] = experiment: thermal stability score vs G1/S (z-score of summed log2 fold changes over temperatures); higher = more thermally stable than in G1/S
[5] = cell cycle stage: early G1 (4.5 h after nocodazole release)
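For melting temperature (median over replicates), in situ in this document: HeLa Kyoto cells synchronized by double thymidine or nocodazole block, proteins quantified by TMT10plex mass spectrometry, three independent biological replicates.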
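For solubility change mitosis vs G1/S (difference of NP-40 vs SDS log2 ratios) in this document: synchronized HeLa Kyoto cells (double thymidine block for G1/S, nocodazole release for mitosis), protein amounts in NP-40 versus SDS lysates quantified by mass spectrometry, three biological replicates.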
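For solubility in G1/S (NP-40 vs SDS abundance) in this document: HeLa Kyoto cells arrested at G1/S by double thymidine block, proteins quantified by TMT10plex mass spectrometry in mild NP-40 versus SDS extracts, three biological replicates.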
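For thermal stability score vs G1/S (z-score of summed log2 fold changes over temperatures) in this document: synchronized HeLa Kyoto cells, proteins quantified by TMT10plex mass spectrometry, three biological replicates, mitosis taken 0.5 h after nocodazole release, G1/S directly after double thymidine block.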

Chain of MTO1 (chain, as listed by the source): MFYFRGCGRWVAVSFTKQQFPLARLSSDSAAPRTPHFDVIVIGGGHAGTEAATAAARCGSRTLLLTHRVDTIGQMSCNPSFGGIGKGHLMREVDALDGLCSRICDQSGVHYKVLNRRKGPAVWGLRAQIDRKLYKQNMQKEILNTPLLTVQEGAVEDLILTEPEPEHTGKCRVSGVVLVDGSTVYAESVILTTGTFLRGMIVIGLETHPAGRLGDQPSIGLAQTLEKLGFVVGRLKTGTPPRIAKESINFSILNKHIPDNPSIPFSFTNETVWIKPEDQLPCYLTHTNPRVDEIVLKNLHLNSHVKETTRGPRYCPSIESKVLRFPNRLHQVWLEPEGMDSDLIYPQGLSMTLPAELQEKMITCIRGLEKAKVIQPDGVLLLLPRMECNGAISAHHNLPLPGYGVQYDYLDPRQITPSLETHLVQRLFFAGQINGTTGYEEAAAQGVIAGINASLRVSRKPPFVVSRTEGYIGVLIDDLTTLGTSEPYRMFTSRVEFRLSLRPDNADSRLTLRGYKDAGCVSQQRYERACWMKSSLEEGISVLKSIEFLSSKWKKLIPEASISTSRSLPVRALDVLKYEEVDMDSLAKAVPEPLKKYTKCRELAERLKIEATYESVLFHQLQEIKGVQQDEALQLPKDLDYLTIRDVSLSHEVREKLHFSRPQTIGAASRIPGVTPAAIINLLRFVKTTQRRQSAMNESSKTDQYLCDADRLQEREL

MTNPSDRVLPANSMAESREGDFGCTVMELRKLMELRSRDALTQINVHYGGVQNLCSRLKTSPVEGLSGNPADLEKRRQVFGHNVIPPKKPKTFLELVWEALQDVTLIILEIAAIISLVLSFYRPAGEENELCGQVATTPEDENEAQAGWIEGAAILFSVIIVVLVTAFNDWSKEKQFRGLQCRIEQEQKFSIIRNGQLIQLPVAEIVVGDIAQVKYGDLLPADGILIQGNDLKIDESSLTGESDHVKKSLDKDPMLLSGTHVMEGSGRMVVTAVGVNSQTGIILTLLGVNEDDEGEKKKKGKKQGVPENRNKAKTQDGVALEIQPLNSQEGIDNEEKDKKAVKVPKKEKSVLQGKLTRLAVQIGKAGLLMSALTVFILILYFVIDNFVINRRPWLPECTPIYIQYFVKFFIIGITVLVVAVPEGLPLAVTISLAYSVKKMMKDNNLVRHLDACETMGNATAICSDKTGTLTMNRMTVVQAYIGGIHYRQIPSPDVFLPKVLDLIVNGISINSAYTSKILPPEKEGGLPRQVGNKTECALLGFVTDLKQDYQAVRNEVPEEKLYKVYTFNSVRKSMSTVIRNPNGGFRMYSKGASEIILRKCNRILDRKGEAVPFKNKDRDDMVRTVIEPMACDGLRTICIAYRDFDDTEPSWDNENEILTELTCIAVVGIEDPVRPEVPDAIAKCKQAGITVRMVTGDNINTARAIATKCGILTPGDDFLCLEGKEFNRLIRNEKGEVEQEKLDKIWPKLRVLARSSPTDKHTLVKGIIDSTVGEHRQVVAVTGDGTNDGPALKKADVGFAMGIAGTDVAKEASDIILTDDNFTSIVKAVMWGRNVYDSISKFLQFQLTVNVVAVIVAFTGACITQDSPLKAVQMLWVNLIMDTFASLALATEPPTESLLKRRPYGRNKPLISRTMMKNILGHAFYQLIVIFILVFAGEKFFDIDSGRKAPLHSPPSQHYTIVFNTFVLMQLFNEINSRKIHGEKNVFSGIYRNIIFCSVVLGTFICQIFIVEFGGKPFSCTSLSLSQWLWCLFIGIGELLWGQFISAIPTRSLKFLKEAGHGTTKEEITKDAEGLDEIDHAEMELRRGQILWFRGLNRIQTQIDVINTFQTGASFKGVLRRQNMGQHLDVKLVPSSSYIKVVKAFHSSLHESIQKPYNQKSIHSFMTHPEFAIEEELPRTPLLDEEEEENPDKASKFGTRVLLLDGEVTPYANTNNNAVDCNQVQLPQSDSSLQSLETSV [ATP2B4]
melting temperature (HeLa Kyoto [1]; cell cycle stage: G1/S): 54.7 °C
melting temperature (HeLa Kyoto [1]; cell cycle stage: mitosis): 54.9 °C
solubility in G1/S (log2) (HeLa Kyoto [2]): -0.254
solubility change mitosis (log2) (HeLa Kyoto [3]): -0.0607
thermal stability score (HeLa Kyoto [4]; [5]): 1.12
thermal stability score (HeLa Kyoto [4]; cell cycle stage: mitosis): 0.912

MTO1
melting temperature (HeLa Kyoto [1]; cell cycle stage: G1/S): 50 °C
melting temperature (HeLa Kyoto [1]; cell cycle stage: mitosis): 50.4 °C
solubility in G1/S (log2) (HeLa Kyoto [2]): -0.108
solubility change mitosis (log2) (HeLa Kyoto [3]): -0.0427
thermal stability score (HeLa Kyoto [4]; [5]): -0.222
thermal stability score (HeLa Kyoto [4]; cell cycle stage: mitosis): 1.63

MTPEFDEEVVFENSPLYQYLQDLGHTDFEICSSLSPKTEKCTTEGQQKPPTRVLPKQGILLKVAETIKSWIFFSQCNKKDDLLHKLDIGFRLDSLHTILQQEVLLQEDVELIELLDPSILSAGQSQQQENGHLPTLCSLATPNIWDLSMLFAFISLLVMLPTWWIVSSWLVWGVILFVYLVIRALRLWRTAKLQVTLKKYSVHLEDMATNSRAFTNLVRKALRLIQETEVISRGFTLVSAACPFNKAGQHPSQHLIGLRKAVYRTLRANFQAARLATLYMLKNYPLNSESDNVTNYICVVPFKELGLGLSEEQISEEEAHNFTDGFSLPALKVLFQLWVAQSSEFFRRLALLLSTANSPPGPLLTPALLPHRILSDVTQGLPHAHSACLEELKRSYEFYRYFETQHQSVPQCLSKTQQKSRELNNVHTAVRSLQLHLKALLNEVIILEDELEKLVCTKETQELVSEAYPILEQKLKLIQPHVQASNNCWEEAISQVDKLLRRNTDKKGKPEIACENPHCTVVPLKQPTLHIADKDPIPEEQELEAYVDDIDIDSDFRKDDFYYLSQEDKERQKREHEESKRVLQELKSVLGFKASEAERQKWKQLLFSDHAVLKSLSPVDPVEPISNSEPSMNSDMGKVSKNDTEEESNKSATTDNEISRTEYLCENSLEGKNKDNSSNEVFPQGAEERMCYQCESEDEPQADGSGLTTAPPTPRDSLQPSIKQRLARLQLSPDFTFTAGLAAEVAARSLSFTTMQEQTFGGEEEEQIIEENKNEIEEK [VEZT]
melting temperature (HeLa Kyoto [1]; cell cycle stage: G1/S): 52.6 °C
melting temperature (HeLa Kyoto [1]; cell cycle stage: mitosis): 52 °C
solubility in G1/S (log2) (HeLa Kyoto [2]): 0.0301
solubility change mitosis (log2) (HeLa Kyoto [3]): -0.229
thermal stability score (HeLa Kyoto [4]; [5]): -1.08
thermal stability score (HeLa Kyoto [4]; cell cycle stage: mitosis): -3.04

MTSAAPAKKPYRKAPPEHRELRLEIPGSRLEQEEPLTDAERMKLLQEENEELRRRLASATRRTEALERELEIGQDCLELELGQSREELDKFKDKFRRLQNSYTASQRTNQELEDKLHTLASLSHSWIFAIKKAEMDRKTLDWEIVELTNKLLDAKNTINKLEELNERYRLDCNLAVQLLKCNKSHFRNHKFADLPCELQDMVRKHLHSGQEAASPGPAPSLAPGAVVPTSVIARVLEKPESLLLNSAQSGSAGRPLAEDVFVHVDMSEGVPGDPASPPAPGSPTPQPNGECHSLGTARGSPEEELPLPAFEKLNPYPTPSPPHPLYPGRRVIEFSEDKVRIPRNSPLPNCTYATRQAISLSLVEEGSERARPSPVPSTPASAQASPHHQPSPAPLTLSAPASSASSEEDLLVSWQRAFVDRTPPPAAVAQRTAFGRDALPELQRHFAHSPADRDEVVQAPSARPEESELLLPTEPDSGFPREEEELNLPISPEEERQSLLPINRGTEEGPGTSHTEGRAWPLPSSSRPQRSPKRMGVHHLHRKDSLTQAQEQGNLLN [TJAP1]
melting temperature (HeLa Kyoto [1]; cell cycle stage: G1/S): 51.1 °C
melting temperature (HeLa Kyoto [1]; cell cycle stage: mitosis): 51.7 °C
solubility in G1/S (log2) (HeLa Kyoto [2]): 0.288
solubility change mitosis (log2) (HeLa Kyoto [3]): -0.036
thermal stability score (HeLa Kyoto [4]; [5]): 1.77
thermal stability score (HeLa Kyoto [4]; cell cycle stage: mitosis): 3.57

MTSIIKLTTLSGVQEESALCYLLQVDEFRFLLDCGWDEHFSMDIIDSLRKHVHQIDAVLLSHPDPLHLGALPYAVGKLGLNCAIYATIPVYKMGQMFMYDLYQSRHNTEDFTLFTLDDVDAAFDKIQQLKFSQIVNLKGKGHGLSITPLPAGHMIGGTIWKIVKDGEEEIVYAVDFNHKREIHLNGCSLEMLSRPSLLITDSFNATYVQPRRKQRDEQLLTNVLETLRGDGNVLIAVDTAGRVLELAQLLDQIWRTKDAGLGVYSLALLNNVSYNVVEFSKSQVEWMSDKLMRCFEDKRNNPFQFRHLSLCHGLSDLARVPSPKVVLASQPDLECGFSRDLFIQWCQDPKNSIILTYRTTPGTLARFLIDNPSEKITEIELRKRVKLEGKELEEYLEKEKLKKEAAKKLEQSKEADIDSSDESDIEEDIDQPSAHKTKHDLMMKGEGSRKGSFFKQAKKSYPMFPAPEERIKWDEYGEIIKPEDFLVPELQATEEEKSKLESGLTNGDEPMDQDLSDVPTKCISTTESIEIKARVTYIDYEGRSDGDSIKKIINQMKPRQLIIVHGPPEASQDLAECCRAFGGKDIKVYMPKLHETVDATSETHIYQVRLKDSLVSSLQFCKAKDAELAWIDGVLDMRVSKVDTGVILEEGELKDDGEDSEMQVEAPSDSSVIAQQKAMKSLFGDDEKETGEESEIIPTLEPLPPHEVPGHQSVFMNEPRLSDFKQVLLREGIQAEFVGGVLVCNNQVAVRRTETGRIGLEGCLCQDFYRIRDLLYEQYAIV [CPSF2]
melting temperature (HeLa Kyoto [1]; cell cycle stage: G1/S): 48.7 °C
melting temperature (HeLa Kyoto [1]; cell cycle stage: mitosis): 50.3 °C
solubility in G1/S (log2) (HeLa Kyoto [2]): -0.409
solubility change mitosis (log2) (HeLa Kyoto [3]): 0.0805
thermal stability score (HeLa Kyoto [4]; [5]): -0.0481
thermal stability score (HeLa Kyoto [4]; cell cycle stage: mitosis): 1.62

MTSLTQRSSGLVQRRTEASRNAADKERAAGGGAGSSEDDAQSRRDEQDDDDKGDSKETRLTLMEEVLLLGLKDREGYTSFWNDCISSGLRGCMLIELALRGRLQLEACGMRRKSLLTRKVICKSDAPTGDVLLDEALKHVKETQPPETVQNWIELLSGETWNPLKLHYQLRNVRERLAKNLVEKGVLTTEKQNFLLFDMTTHPLTNNNIKQRLIKKVQEAVLDKWVNDPHRMDRRLLALIYLAHASDVLENAFAPLLDEQYDLATKRVRQLLDLDPEVECLKANTNEVLWAVVAAFTK [GOLPH3]
melting temperature (HeLa Kyoto [1]; cell cycle stage: G1/S): 51.9 °C
melting temperature (HeLa Kyoto [1]; cell cycle stage: mitosis): 51.5 °C
solubility in G1/S (log2) (HeLa Kyoto [2]): 0.434
solubility change mitosis (log2) (HeLa Kyoto [3]): -0.137
thermal stability score (HeLa Kyoto [4]; [5]): 0.551
thermal stability score (HeLa Kyoto [4]; cell cycle stage: mitosis): -0.641

MTSMASLFSFTSPAVKRLLGWKQGDEEEKWAEKAVDALVKKLKKKKGAMEELEKALSSPGQPSKCVTIPRSLDGRLQVSHRKGLPHVIYCRVWRWPDLQSHHELKPLDICEFPFGSKQKEVCINPYHYKRVESPVLPPVLVPRHNEFNPQHSLLVQFRNLSHNEPHMPQNATFPDSFHQPNNTPFPLSPNSPYPPSPASSTYPNSPASSGPGSPFQLPADTPPPAYMPPDDQMGQDNSQPMDTSNNMIPQIMPSISSRDVQPVAYEEPKHWCSIVYYELNNRVGEAFHASSTSVLVDGFTDPSNNKSRFCLGLLSNVNRNSTIENTRRHIGKGVHLYYVGGEVYAECLSDSSIFVQSRNCNFHHGFHPTTVCKIPSSCSLKIFNNQEFAQLLAQSVNHGFEAVYELTKMCTIRMSFVKGWGAEYHRQDVTSTPCWIEIHLHGPLQWLDKVLTQMGSPLNPISSVS [SMAD5]
melting temperature (HeLa Kyoto [1]; cell cycle stage: G1/S): 50.3 °C
melting temperature (HeLa Kyoto [1]; cell cycle stage: mitosis): 50 °C
solubility in G1/S (log2) (HeLa Kyoto [2]): -0.0752
solubility change mitosis (log2) (HeLa Kyoto [3]): -0.0922
thermal stability score (HeLa Kyoto [4]; [5]): 0.616
thermal stability score (HeLa Kyoto [4]; cell cycle stage: mitosis): 0.53

MTSMTQSLREVIKAMTKARNFERVLGKITLVSAAPGKVICEMKVEEEHTNAIGTLHGGLTATLVDNISTMALLCTERGAPGVSVDMNITYMSPAKLGEDIVITAHVLKQGKTLAFTSVDLTNKATGKLIAQGRHTKHLGN [ACOT13]
melting temperature (HeLa Kyoto [1]; cell cycle stage: G1/S): 56.4 °C
melting temperature (HeLa Kyoto [1]; cell cycle stage: mitosis): 57.7 °C
solubility in G1/S (log2) (HeLa Kyoto [2]): 0.372
solubility change mitosis (log2) (HeLa Kyoto [3]): -0.0848
thermal stability score (HeLa Kyoto [4]; [5]): -1.62
thermal stability score (HeLa Kyoto [4]; cell cycle stage: mitosis): -1.82

MTSPAAAQSREIDCLSPEAQKLAEARLAAKRAARAEAREIRMKELERQQKEEDSERYSRRSRRNTSASDEDERMSVGSRGSLRVEERPEKDFTEKGSRNMPGLSAATLASLGGTSSRRGSGDTSISIDTEASIREIKELNELKDQIQDVEGKYMQGLKEMKDSLAEVEEKYKKAMVSNAQLDNEKTNFMYQVDTLKDMLLELEEQLAESRRQYEEKNKEFEREKHAHSILQFQFAEVKEALKQREEMLEKHGIILNSEIATNGETSDTLNNVGYQGPTKMTKEELNALKSTGDGTLGRASEVEVKNEIVANVGKREILHNTEKEQHTEDTVKDCVDIEVFPAGENTEDQKSSEDTAPFLGTLAGATYEEQVQSQILESSSLPENTVQVESNEVMGAPDDRTRTPLEPSNCWSDLDGGNHTENVGEAAVTQVEEQAGTVASCPLGHSDDTVYHDDKCMVEVPQELETSTGHSLEKEFTNQEAAEPKEVPAHSTEVGRDHNEEEGEETGLRDEKPIKTEVPGSPAGTEGNCQEATGPSTVDTQNEPLDMKEPDEEKSDQQGEALDSSQKKTKNKKKKNKKKKSPVPVETLKDVKKELTYQNTDLSEIKEEEQVKSTDRKSAVEAQNEVTENPKQKIAAESSENVDCPENPKIKLDGKLDQEGDDVQTAAEEVLADGDTLDFEDDTVQSSGPRAGGEELDEGVAKDNAKIDGATQSSPAEPKSEDADRCTLPEHESPSQDISDACEAESTERCEMSEHPSQTVRKALDSNSLENDDLSAPGREPGHFNPESREDTRGGNEKGKSKEDCTMS [LRRFIP1]
melting temperature (HeLa Kyoto [1]; cell cycle stage: G1/S): 58.7 °C
solubility in G1/S (log2) (HeLa Kyoto [2]): 0.265
solubility change mitosis (log2) (HeLa Kyoto [3]): 0.0557
thermal stability score (HeLa Kyoto [4]; [5]): -2.05
thermal stability score (HeLa Kyoto [4]; cell cycle stage: mitosis): -2.56
